Where “and” joins values, the source holds several entries; their conditions need not be identical. Equal entries are not always repeated.
What was measured:
[1] = biological target: T1, FcγRI (UniProt P12314 16-288, limits assumed); assay: Octet QK384, FcγRI on Ni-NTA biosensors, 7 XTMAB-16 concentrations, 1:1 model fit
T1 construct: It was immobilized on Ni-NTA biosensors, which implies a His tag; The ELISA paragraph calls it 'His tab-labeled recombinant purified FcγRI'; also called CD64

[2] = biological target: T2, His-tagged FcγRIIIa (UniProt P08637 17-208, limits assumed); assay: Octet QK384, steady-state KD from binding curves; range stated for the batches
T2 construct: His-tagged and captured on anti-penta-His biosensors; also called CD16
T2 sequence (P08637 17-208 limits assumed): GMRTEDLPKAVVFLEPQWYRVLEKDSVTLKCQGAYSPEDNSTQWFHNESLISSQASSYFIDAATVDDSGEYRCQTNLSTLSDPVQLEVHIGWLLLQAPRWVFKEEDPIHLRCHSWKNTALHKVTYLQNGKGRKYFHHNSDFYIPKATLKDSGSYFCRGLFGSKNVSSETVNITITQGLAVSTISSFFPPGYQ

[3] = biological target: TNFα from cynomolgus monkey (cynomolgus monkey, UniProt P79337 77-233, limits assumed); assay: ELISA, cross-species binding studies
TNFα from cynomolgus monkey, sequence (P79337 77-233 limits assumed): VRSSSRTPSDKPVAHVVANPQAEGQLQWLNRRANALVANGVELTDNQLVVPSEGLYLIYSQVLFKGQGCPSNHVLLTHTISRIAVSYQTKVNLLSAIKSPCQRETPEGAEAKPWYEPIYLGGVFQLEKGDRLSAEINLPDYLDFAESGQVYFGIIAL

[4] = biological target: T3, TNFα from rat (rat, UniProt P16599 80-235); assay: ELISA, cross-species binding studies
T3 sequence (looked up): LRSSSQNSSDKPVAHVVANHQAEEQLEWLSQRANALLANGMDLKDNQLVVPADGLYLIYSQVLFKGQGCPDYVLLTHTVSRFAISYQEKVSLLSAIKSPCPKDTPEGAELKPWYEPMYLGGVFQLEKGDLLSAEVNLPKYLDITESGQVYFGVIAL

[5] = biological target: TNFα from dog (dog, UniProt P51742 77-233); assay: ELISA, cross-species binding studies
TNFα from dog, sequence (P51742 77-233 limits assumed): as the sequence (P79337 77-233 limits assumed) above, with R2K, Q21E, N30S, V37L, V49I, E53D, N72T, I83F, A109T, D140N counted along it

[6] = biological target: TNFα from rhesus monkey (rhesus monkey, UniProt P48094 77-233); assay: ELISA, cross-species binding studies
TNFα from rhesus monkey, sequence (P48094 77-233 limits assumed): as the sequence (P79337 77-233 limits assumed) above, with V37L counted along it

[7] = biological target: T1, FcγRI; assay: Octet QK384, FcγRI on Ni-NTA biosensors; range stated for the batches

T1 sequence (P12314 16-288 limits assumed): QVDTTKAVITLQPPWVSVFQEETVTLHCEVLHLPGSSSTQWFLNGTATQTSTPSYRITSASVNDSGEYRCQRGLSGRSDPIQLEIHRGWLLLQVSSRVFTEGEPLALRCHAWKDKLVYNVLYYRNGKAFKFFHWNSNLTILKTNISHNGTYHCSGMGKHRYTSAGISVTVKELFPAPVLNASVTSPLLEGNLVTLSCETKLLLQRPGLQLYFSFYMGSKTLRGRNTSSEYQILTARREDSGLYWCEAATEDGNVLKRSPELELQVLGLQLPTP

B1: XTMAB-16 (antibody, human IgG1, kappa)
heavy: not shown
light: DILLTQSPAILSVSPGERVSFSCRASQFVGSSIHWYQQRTNGSPRLLIKYASESMSGIPSRFSGSGSGTDFTLSINTVESEDIADYYCQQSHSWPFTFGSGTNLEVKRTVAAPSVFIFPPSDEQLKSGTASVVCLLNNFYPREAKVQWKVDNALQSGNSQESVTEQDSKDSTYSLSSTLTLSKADYEKHKVYACEVTHQGLSSPVTKSFNRGEC
notes: The general description says the antibody is sialylated with N-acetylneuraminic acid (Asn 297 in embodiments) and glycosylated at Asn 300; All batches (A-H); also called XTMB-16
Kd [1]: 0.68 nM and 0.63 nM | Kd [2]: 300 nM | binding result [3]: no binding | binding result [4]: no binding | binding result [5]: no binding | binding result [6]: no binding | Kd [7]: 0.5 nM and 0.9 nM
